We go through 1 substance from patent US20210379046A1, “Methods of Treating Diseases Using Kinase Modulators” (Memorial Sloan Kettering Cancer Center, priority 2018, published 2021).

In this test the target is non-WT1-derived peptide expressed on TPC1 cells in complex with HLA-A*02:01 (human). Nature of the test: cell-based or functional assay.

Regarding ESK1 (antibody), the improvement of specific lysis, chromium-51 release ADCC, TPC1 cells pretreated with 100 nM trametinib came out at 10%; the percent specific lysis, chromium-51 release ADCC with human PBMCs, 50:1 E:T, TPC1 cells pretreated with 10 nM AST487 was 20%; the percent specific lysis, chromium-51 release ADCC with human PBMCs, 50:1 E:T, TPC1 cells pretreated with DMSO was 3%.
